As usually defined, the IC50 is the concentration that gives 50% inhibition.

Non-standard residues stand in square brackets, D forms with d. No end group written: not given here.

Test [1] addresses MK2 (Homo sapiens, UniProt P49137). Kind of test: Omnia fluorescence-based kinase activity assay for MAPKAP-K2 (reaction velocity). The note with it: for MK2 inhibition (in words): PTD peptide alone, 12.5-100 μM. Type of test: biochemical. On the set-up: purchased Invitrogen. How it is done:
The Omnia® Kinase Assay for MAPKAP-K2 kit (Invitrogen, Carlsbad, Calif.), was used to determine the reaction velocity for MK2 in the presence and absence of each of the peptides listed in Table 1. The kit contains a proprietary reaction buffer to which the following were added (final concentrations are given): 1 mM ATP, 0.2 mM DTT, 10 μM MAPKAP-K2 Sox-modified peptide substrate, 5 ng MK2, and the inhibitor peptide of interest (final volume of 50 μL). Human MK2 was purchased from Invitrogen. The reactions were performed at 30° C. in the wells of a low-protein-binding 96-well plate provided with the kit, and fluorescence readings (excitation=360 nm, emission=485 nm) were taken every 30 seconds for 20 minutes using a SpectraMax M5 Spectrophotometer (Molecular Devices). Reaction velocity was determined for each reaction well from the slope of a plot of relative fluorescence units versus time. Each inhibitor peptide was tested at least at four concentrations, 12.5, 25, 50 and […], in triplicate.
In Table 1, “a” represents that the results shown are for 100 μM for all peptides; “b” represents the percentage change in MK2 reaction velocity versus the unsubstituted peptide ([…]) [SEQ ID NO: 13] at a concentration of 100 μM; “c” represents the error reported as the standard deviation between three samples.

Another test deals with PKC. The note with it: AIP 1 μM; cited from earlier work.
The next test has as its system PKA. The note with it: AIP 1 μM; cited from earlier work.
The target of the next test is CaMKIV (Homo sapiens, UniProt Q16566). Particulars: AIP 1 μM; cited from earlier work.
CaMKIV, sequence (Q16566 whole entry, species assumed): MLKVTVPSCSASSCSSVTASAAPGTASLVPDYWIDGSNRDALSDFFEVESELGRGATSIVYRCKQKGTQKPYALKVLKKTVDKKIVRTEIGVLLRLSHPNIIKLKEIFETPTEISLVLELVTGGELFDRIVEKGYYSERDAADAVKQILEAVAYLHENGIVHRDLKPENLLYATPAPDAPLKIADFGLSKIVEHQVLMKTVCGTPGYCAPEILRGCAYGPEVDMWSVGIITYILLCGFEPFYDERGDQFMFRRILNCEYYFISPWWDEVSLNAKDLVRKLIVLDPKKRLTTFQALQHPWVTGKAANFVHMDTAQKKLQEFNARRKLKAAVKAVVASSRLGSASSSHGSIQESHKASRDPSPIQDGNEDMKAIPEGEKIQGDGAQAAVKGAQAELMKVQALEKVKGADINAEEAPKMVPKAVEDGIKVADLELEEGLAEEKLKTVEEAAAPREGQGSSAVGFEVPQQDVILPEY
The subject of test [2] is Ca2+/calmodulin-dependent protein kinase II (CaMKII). The note with it: cited from earlier work.
The subject of test [3] is MK2. Particulars: commercially available inhibitor; kinase not named at the place, used as inhibitor of MK2 (and PRAK); cited from earlier work.
Test [4] relates to IL-1β induced IL-6 expression in mesothelial cells (CRL-9444). Description: IL-6 ELISA, mesothelial cells induced with IL-1β. The note with it: IL-1β 1 ng/ml; Rottlerin 1 μM. Type of test: cell-based.
The test system of test [5] is IL-6 expression induced by TNF-α in mesothelial cells (CRL-9444). Kind of test: IL-6 ELISA, mesothelial cells induced with TNF-α. The class given is cell-based. The procedure:
A cell line of pleural mesothelial cells (CRL-9444) was purchased from American Type Culture Collection. Cells were maintained and seeded in Medium 199 with Earle's BSS and 0.75 mM L-glutamine (Mediatech, Inc., Manassas, Va.), 1.25 g/L sodium bicarbonate (Sigma, St. Louis, Mo.), 3.3 nM epidermal growth factor (MBL International, Woburn, Mass.), 40 nM hydrocortisone (Sigma), 870 nM insulin (MBL International), 20 mM HEPES (Sigma), trace elements mixture B (Mediatech, Inc.), 10% fetal bovine serum (FBS) (Hyclone, Waltham, Mass.) and 1% penicillin/streptomycin (Mediatech, Inc.). Prior to treating cells with therapeutic inhibitor peptides, cells were allowed to acclimate in serum-free media consisting of only Medium 199 with Earle's BSS. L-glutamine, sodium bicarbonate, HEPES, trace elements mixture B, and penicillin/streptomycin (concentrations and suppliers as above) for 24 hours prior to treatment with cytokines and/or inhibitor peptides. […]
Standards (from 2 ng/ml to zero) and samples were prepared in diluent, immediately added to each well in triplicate, and incubated at room temperature for at least 2 hours on a plate shaker adjusted to 300 rpm. […] Hoeschst 33342 nuclear stain (Invitrogen) was used to quantify cell number on the basis of DNA quantity. […]
Results are presented as means±standard deviation. […] Significant differences were analyzed with Tukey HSD post hoc comparisons. […]

Where [6] appears, read: 100 μM peptide, percentage change in MK2 reaction velocity versus unsubstituted KALNRQLGVAA at 100 μM, SD of three samples.

MK2 (Homo sapiens, UniProt P49137), sequence (P49137 whole entry): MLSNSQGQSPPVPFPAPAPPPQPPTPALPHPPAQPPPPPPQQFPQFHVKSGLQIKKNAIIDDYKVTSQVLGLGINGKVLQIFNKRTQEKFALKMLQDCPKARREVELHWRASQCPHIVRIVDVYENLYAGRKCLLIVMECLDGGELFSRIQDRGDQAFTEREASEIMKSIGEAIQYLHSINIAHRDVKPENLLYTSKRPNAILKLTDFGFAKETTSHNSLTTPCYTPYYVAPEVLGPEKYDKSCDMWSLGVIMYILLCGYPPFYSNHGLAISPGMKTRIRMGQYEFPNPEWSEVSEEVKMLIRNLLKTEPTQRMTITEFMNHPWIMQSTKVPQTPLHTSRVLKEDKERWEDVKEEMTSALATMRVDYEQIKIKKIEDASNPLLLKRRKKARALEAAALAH

With “KALdNRQLGVAA (KAL[dN]RQLGVAA-NH2) [therapeutic domain, D-amino acid substitution]”, the “percent change in MK2 reaction velocity versus unsubstituted peptide” value (“percent change” for short) with MK2 [1] (setting [6]) was −5(10) %. Turning to “KALNAQLGVAA [therapeutic domain, alanine substitution]”, the “percent change” value in the test with MK2 [1] (setting [6]) is recorded as “+258(14) %”. As for “YGRKKRRQRRR [protein transduction domain peptide, reference compound]”, the “inhibition of MK2 activity” value with MK2 [1] (25 μM peptide) is 48%; with MK2 [1] (100 μM peptide) it was 61%. Also, the “percent change” value with MK2 [1] (setting [6]) is “+44(17) %”. For “KALNRQLGVA [therapeutic domain without C-terminal Ala]”, the “percent change” value with MK2 [1] (setting [6]) is recorded as 0(5) %. The same measure, in the same setting: with “KKKALNRQLGVAA [therapeutic domain with two additional N-terminal Lys]” the figure was −9(8) %; with “KALARQLGVAA [therapeutic domain, alanine substitution]”, −61(2) %. As for “KALNRQLAVAA [therapeutic domain, alanine substitution]”, the “percent change” value in the test with MK2 [1] (setting [6]) was −28(5) %.

On to “KAANRQLGVAA [therapeutic domain, alanine substitution]”, for which the “percent change” value with MK2 [1] (setting [6]) is “+52(6) %”. On the same count and under the same terms, then “KALNRQAGVAA [therapeutic domain, alanine substitution]”, with “+18(7) %”. For the molecule “KKALRRQEAVDAL [AIP, autocamtide-2 related inhibitory peptide]”, the PKC activity entry in the test with PKC was “not affected”. In addition, the PKA activity result in the test on PKA is listed as “not affected”. Besides, the CaMKIV activity result on CaMKIV is recorded as “not affected”. For the same molecule, in test [2] (AIP 1 μM), the CaMKII activity result is reported as “inhibited completely”. Besides, the IC50 in test [2] is 0.1 µM. In the case of `CC(=O)c1c(O)c(C)c(O)c(Cc2c(O)c3c(c(C(=O)/C=C/c4ccccc4)c2O)OC(C)(C)C=C3)c1O` [Rottlerin], in the test with MK2 [3], the IC50 was 5 µM. Further, in test [4], the “IL-1β induced IL-6 expression (FIG. 7)” value is “significantly reduced” and the “time at which significant reduction of IL-1β induced IL-6 expression occurs” value worked out at 12 h. Also, in test [5] (TNF-α 1 ng/ml), the “level of expression of IL-6 induced by TNF-α (FIG. 8)” value is “ineffective”. Besides, the “level of expression of IL-6 induced by TNF-α (FIG. 9)” value in test [5] (TNF-α 10 ng/ml, initially, from 6-12 hours) is “minimal reduction”.

Consider “KALNdRQLGVAA (KALN[dR]QLGVAA-NH2) [therapeutic domain, D-amino acid substitution]”, for which the “percent change” value with MK2 [1] (setting [6]) is “+206(7) %”. Consider “KAdLNRQLGVAA (KA[dL]NRQLGVAA-NH2) [therapeutic domain, D-amino acid substitution]”, for which the “percent change” value in the test with MK2 [1] (setting [6]) is 46(7) %.

For “KALNRQLGVAA [unsubstituted therapeutic domain peptide]”, the “inhibition of MK2 activity” value in the test with MK2 [1] (100 μM peptide) turned out to be 73%. In the test with MK2 [1] (setting [6]), the “percent change” value was “+258(26) %”. Consider “KALNRdQLGVAA (KALNR[dQ]LGVAA-NH2) [therapeutic domain, D-amino acid substitution]”, for which the “percent change” value with MK2 [1] (setting [6]) is recorded as “+176(5) %”. Still for that read-out and setting: with “KALNRQdLGVAA (KALNRQ[dL]GVAA-NH2) [therapeutic domain, D-amino acid substitution]” the entry was “+257(17) %”. Take “YARAAARQARA [synthetic protein transduction domain peptide PTD-4, reference compound]”: the “percent change” value in the test with MK2 [1] (setting [6]) was “+149(13) %”. The “MK2 inhibition (in words)” value with MK2 [1] is on record as “least affected”. “WLRRIKAWLRRIKA [protein transduction domain peptide]”: in the test with MK2 [1] (setting [6]), the “percent change” value is listed as −83(4) %. Besides, the “MK2 inhibition (in words)” value with MK2 [1] is reported as “potently inhibited”.

As to “KALNRQLGdVAA (KALNRQLG[dV]AA) [therapeutic domain, D-amino acid substitution]”, the “percent change” value with MK2 [1] (setting [6]) is given as “+160(23) %”.

As for “KALNRQLGAAA [therapeutic domain, alanine substitution]”, the “percent change” value with MK2 [1] (setting [6]) is “+273(22) %”. With “WLRRIKA [cell penetrating peptide domain (non-functional)]”, in the test with MK2 [1] (setting [6]), the % of KALNRQLGVAA [SEQ ID NO: 13] Reaction Velocity (+VoSD) stood at 306%.

These data come from patent US9327008B2, “Cell-permeant peptide-based inhibitor of kinases” (Purdue Research Foundation, priority 2008, dated 2016).
